From article PMC5739345, “Identification of iridoid synthases from Nepeta species: Iridoid cyclization does not determine nepetalactone stereochemistry” (Phytochemistry, 2018) come the findings set out here.

Substrate in series [1]: NC(=O)C1=CN([C@@H]2O[C@H](COP(=O)(O)OP(=O)(O)OC[C@H]3O[C@@H](n4cnc5c(N)ncnc54)[C@H](OP(=O)(O)O)[C@@H]3O)[C@@H](O)[C@H]2O)C=CC1
The series can be described thus: purified protein. It is filed as biochemical, Nepeta racemosa. Particulars: 50 μM 8-oxogeranial, 200 mM MOPS pH 7.0, 100 mM NaCl, 1-1.4% THF, 25 °C, 5 nM enzyme, varied: cofactor.

Substrate in series [2]: C/C(C=O)=C\CC/C(C)=C/C=O
The series can be described thus: purified protein. The following applies: 75 μM NADPH, 200 mM MOPS pH 7.0, 100 mM NaCl, 1-1.4% THF, 25 °C, 5 nM enzyme. It is filed as biochemical, Nepeta racemosa.

B1: NmISY2 (Nepeta racemosa) (protein)
chain: MSLSWWRAGAAKKRMDDDESLLVKQQQQQCVALIVGVTGLVGNSLAEMLPLPDTPGGPWKVYGVARRARPSWNEDQPMTYISCDVSNTGEVEAKLSPLSDVTHIFYATWTSRSTEEENCEANGKMLKNVLDAMIPNCPNLKHICLQTGRFHYVASVVDWKINGSHDTPLTEDLPRLKTNNFYYTQEDILLEEVKRKEGLTWSVHRPGTIFGFSPYSMMNLVGTLCVYAAICKQEGAVLRFPGCKGAWDGHSDCADADLIAEQQIWAALDPHAKNQAFNVSNGDLFKWKHLWKVLADQFGVECGDYEEGQQLRLQDVMKDKGPVWDKIVAENGLSNTKLEDVGKWWFSDTILWNECRLDSMNKSKEHGFLGFRNSKNCFLYWIHKVKAYNLVPSTYT
notes: N-terminal His-tag (pOPINF), E. coli soluBL21 (DE3), Ni-NTA and gel filtration; not fully homogeneous; dimer fraction; Phe at Lys146, Ala at Gly150 positions (natural)
Take B1: in series [1], the Km is 26.2 ± 5.1 µM and the kcat worked out at 0.84 ± 0.06 s⁻¹. In series [2], the Km amounted to 7.3 ± 0.7 µM and the kcat came to 0.60 ± 0.02 s⁻¹.

A word on the Km: it is the concentration of substrate that gives half-maximal velocity. Broadly, the kcat is the maximal rate divided by the concentration of active sites.
